We go through 2 compounds from publication PMC3274613 (Bioorganic & medicinal chemistry letters, 2012).

Bridge positions count the residues as written; N and C are the ends. Square brackets hold non-standard residues; d marks the D form. Peptide text beside a SMILES is read from it.

One series has as its system αvβ3 integrin receptor. As to conditions: relative to RGD-Lys-(Arg11)CCMSH; cited from earlier work.
The target in another series is MC1 receptor. As to conditions: read-out: MC1 receptor binding affinity; M21 melanoma cells; cited from earlier work.
The subject of a further series is B16/F1 melanoma cells. The experiment in a line: Cellular internalization in B16/F1 melanoma cells. It counts as cell-based, murine.
For series [1] the following is noted: mouse, in vivo.
Series [2] deals with B16/F1 melanoma-bearing C57 mouse. The experiment in a line: SPECT/CT melanoma imaging. The settings on record: 2 h post-injection, approximately 6.7 MBq, one mouse. In kind it is in vivo.
The next series can be described thus: in vivo. The settings on record: C57, mouse, iv, total radioactivity. Also noted: species or system mice.
Series [3] deals with B16/F1 melanoma-bearing C57 mice. The experiment in a line: in vivo. The settings on record: C57, mouse, iv, 2 h.
Where [4] appears, read: 0.037 MBq, Uptake ratio Tumor/Lung.

With `CC(C)[C@H](NC(=O)[C@@H]1CCCN1C(=O)[C@H](CCCNC(=N)N)NC(=O)[C@H](CS)NC(=O)[C@H](Cc1c[nH]c2ccccc12)NC(=O)[C@H](CCCNC(=N)N)NC(=O)[C@@H](Cc1ccccc1)NC(=O)[C@H](Cc1c[nH]cn1)NC(=O)[C@H](CCC(=O)O)NC(=O)[C@H](CS)NC(=O)[C@H](CS)NC(=O)[C@H](CCCCN)NC(=O)[C@@H]1CC(=O)N[C@@H](CCCNC(=N)N)C(=O)N[C@@H](C)C(=O)N[C@@H](CC(=O)O)C(=O)N[C@H](Cc2ccc(O)cc2)C(=O)N1)C(N)=O` [RAD-Lys-(Arg^11)CCMSH] (RAD[dY]DKCCEH[dF]RWCRPV-NH2; lactam N-5; C-terminus assumed), the “Decrease of αvβ3 integrin receptor binding affinity on switch from RGD to RAD” value in the series on αvβ3 integrin receptor is recorded as 248 fold. For the same compound, the IC50 on MC1 receptor was 0.3 nM.

In the series with B16/F1 melanoma cells (20 min post incubation), `CC(C)[C@H](NC(=O)[C@@H]1CCCN1C(=O)[C@H](CCCNC(=N)N)NC(=O)[C@H](CS)NC(=O)[C@H](Cc1c[nH]c2ccccc12)NC(=O)[C@H](CCCNC(=N)N)NC(=O)[C@@H](Cc1ccccc1)NC(=O)[C@H](Cc1c[nH]cn1)NC(=O)[C@H](CCC(=O)O)NC(=O)[C@H](CS)NC(=O)[C@H](CS)NC(=O)[C@H](CCCCN)NC(=O)[C@@H]1CC(=O)N[C@@H](CCCNC(=N)N)C(=O)N[C@@H](C)C(=O)N[C@@H](CC(=O)O)C(=O)N[C@H](Cc2ccc(O)cc2)C(=O)N1)C(N)=O` [^99mTc-RAD-Lys-(Arg^11)CCMSH, metal not drawn] (RAD[dY]DKCCEH[dF]RWCRPV-NH2; lactam N-5; C-terminus assumed) yielded an Activity internalized of 59.20 ± 5.10%. Moreover, in the series with B16/F1 melanoma cells (after 2 h incubation), the Activity internalized was found to be 78.24 ± 1.13%. Moreover, in series [1], the “Transformed to a more lipophilic metabolite in urine” value was determined as 18%. Also, the “Visualization of flank melanoma tumors by SPECT/CT” value in series [2] is given as “visualized clearly”. In addition, in the series “in vivo” (setting [4]), the tissue to tissue ratio at 0.5 h amounted to 4.26, the tissue to tissue ratio at 2 h was 22.9, the tissue to tissue ratio at 4 h came out at 39.1 and the tissue to tissue ratio at 24 h came out at 31.9. Also, the tissue uptake dose at 2 h in the series “in vivo” (Bladder, percent injected dose) turned out to be 69.54 ± 0.63 %ID. In series [3], the “Bladder, percent injected dose” value is listed as 70.34 ± 3.28 %ID; the “Blood, percent injected dose/gram” value is 0.44 ± 0.11 %ID/g; the “Bone, percent injected dose/gram” value worked out at 0.52 ± 0.31 %ID/g; the “Heart, percent injected dose/gram” value was 0.30 ± 0.10 %ID/g. Moreover, in series [3], the “Kidneys, percent injected dose/gram” value turned out to be 50.10 ± 18.56 %ID/g; the “Lung, percent injected dose/gram” value is 0.78 ± 0.17 %ID/g; the “Muscle, percent injected dose/gram” value is 0.28 ± 0.30 %ID/g; the “Spleen, percent injected dose/gram” value is 0.50 ± 0.09 %ID/g. Also, the “Stomach, percent injected dose/gram” value in series [3] worked out at 1.92 ± 0.24 %ID/g.
